In PMC7414852:

Assays:
Assay in all cases: cryo-EM structure
[1] = target: Trypsin-activated Vip3Aa16 toxin (cleaved at K198, both fragments kept together) (Bacillus thuringiensis)
[2] = target: Vip3Aa16 protoxin (Vegetative Insecticidal Protein 3Aa from Bacillus thuringiensis), residues 10-789 (Bacillus thuringiensis)
[3] = target: Vip3Aa16 N-terminal trypsin fragment (domain I, to K198) (Bacillus thuringiensis)

Trypsin-activated Vip3Aa16 toxin (cleaved at K198, both fragments kept together) (complex)
stoichiometry N [1]: 4

Vip3Aa16 protoxin (Vegetative Insecticidal Protein 3Aa from Bacillus thuringiensis), residues 10-789 (natural protein)
stoichiometry N [2]: 4

Vip3Aa16 N-terminal trypsin fragment (domain I, to K198) (domain or fragment)
stoichiometry N [3]: 4
